# Results: patent publication US8710195B2, “Fluorescent proteins” (JNC Corporation, priority 2003, dated 2014)
# Experiments:
# [1] = Substrate specificity, chemiluminescence with h-CTZ; format: biochemical; conditions: compared with coelenterazine
# Procedure: bFP-aq, e-bFP-aq, and h-bFP-aq (0.25 μg) prepared in Example 2 were individually dissolved in 100 μl of 50 mM Tris-HCl (pH 7.6) containing 5 mM dithiothreitol (DTT) and 1 μg/μl coelenterazine and its analog were added to each solution. Each chemiluminescence in the steady reaction state (after 10 min) was measured with a luminometer (AB-2200; manufactured by Atto Co., Ltd.).
# [2] = when calcium ions bind; cited from earlier work
# [3] = Recoverability of fluorescence-generating ability after heating at 90° C.; format: physicochemical; conditions: heated at 90° C. for 3 min
# Procedure: The thermal stability of bFP-aq prepared in Examples 2 was compared with that of gFP-aq prepared Example 3. The solution containing bFP-aq or gFP-aq with a protein concentration of 0.26 mg/ml was heated at 90° C. for 3 min and allowed to stand at 24° C. Subsequently, each fluorescence generation intensity was measured with a spectrofluorometer.
Molecule,Quality as luminescent substrate of the bFPs [1],maximum wave length of blue light emission [2],Ability to emit light due to the addition of calcium ions after heat treatment [3]
O=c1c(Cc2ccccc2)nc2c(Cc3ccccc3)[nH]c(-c3ccc(O)cc3)cn1-2 [h-coelenterazine],serves as a luminescent substrate better than coelenterazine,–,–
aequorin,–,465-470 nm,completely been lost
